The term Kd denotes a measure of binding affinity in units of concentration. Low values mean higher affinity, high ones lower affinity.

The test addresses F-actin (skeletal muscle) (Oryctolagus cuniculus, UniProt P68135). As to the kind of experiment: co-sedimentation assay.

B1: dystrophin N-ABD K18N 1-246 (protein)
chain: MLWWEEVEDCYEREDVQNKTFTKWVNAQFSKFGKQHIENLFSDLQDGRRLLDLLEGLTGQKLPKEKGSTRVHALNNVNKALRVLQNNNVDLVNIGSTDIVDGNHKLTLGLIWNIILHWQVKNVMKNIMAGLQQTNSEKILLSWVRQSTRNYPQVNVINFTTSWSDGLALNALIHSHRPDLFDWNSVVCQQSATQRLEHAFNIARYQLGIEKLLDPEDVDTTYPDKKSILMYITSLFQVLPQQVSIE
Molecule B1 returned a dissociation constant (Kd) of around 45 µM.

Source of the values: publication PMC4207752 (2014).
